# Source: US20140335510, “NANOPARTICLE SENSOR FOR NUCLEIC ACID-PROTEIN INTERACTION” (Agency for Science, Technology and Research, published 2014)
# T1: FoxA1 (full-length) (UniProt P55317 P55317:1-472)
# T1 sequence: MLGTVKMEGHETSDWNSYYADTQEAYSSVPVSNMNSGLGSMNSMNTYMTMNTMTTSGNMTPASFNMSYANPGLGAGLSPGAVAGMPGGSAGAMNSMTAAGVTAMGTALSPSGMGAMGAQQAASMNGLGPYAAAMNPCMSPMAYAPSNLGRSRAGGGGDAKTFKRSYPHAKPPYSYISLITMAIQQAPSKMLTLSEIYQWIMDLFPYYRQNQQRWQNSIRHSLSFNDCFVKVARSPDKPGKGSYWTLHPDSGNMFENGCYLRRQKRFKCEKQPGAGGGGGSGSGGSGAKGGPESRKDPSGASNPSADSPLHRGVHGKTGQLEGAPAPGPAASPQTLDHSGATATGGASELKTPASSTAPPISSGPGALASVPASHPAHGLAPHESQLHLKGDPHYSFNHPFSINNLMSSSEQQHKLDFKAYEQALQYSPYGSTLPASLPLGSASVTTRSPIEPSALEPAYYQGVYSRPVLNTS
# B1: mtR3 (dsDNA)
# DNA 1: AAAGTATTCAGAATCCATG
# DNA 2: CATGGATTCTGAATACTTT
# Target: T1, FoxA1 (full-length)
# Assay: negative control; no fluorescence change of ACP-430 or CCP-410 on adding FoxA1
# Conditions: tags: N-terminal His-MBP fusion, pHISMBP vector, E. coli BL21(DE3); label: 5'-thiol-AuNP on sense strand (sensor)
binder,measurement,value
B1,binding result,no binding
